In IntAct's records for PubMed 31515488:

B1: Transmembrane protein 79 (Homo sapiens), Q9BSE2 (parent)
chain: MTEQETLALLEVKRSDSPEKSSPQALVPNGRQPEGEGGAESPGAESLRVGSSAGSPTAIEGAEDGLDSTVSEAATLPWGTGPQPSAPFPDPPGWRDIEPEPPESEPLTKLEELPEDDANLLPEKAARAFVPIDLQCIERQPQEDLIVRCEAGEGECRTFMPPRVTHPDPTERKWAEAVVRPPGCSCGGCGSCGDREWLRAVASVGAALILFPCLLYGAYAFLPFDVPRLPTMSSRLIYTLRCGVFATFPIVLGILVYGLSLLCFSALRPFGEPRREVEIHRRYVAQSVQLFILYFFNLAVLSTYLPQDTLKLLPLLTGLFAVSRLIYWLTFAVGRSFRGFGYGLTFLPLLSMLMWNLYYMFVVEPERMLTATESRLDYPDHARSASDYRPRPWG
B2: RUN and FYVE domain-containing protein 1 (Homo sapiens), Q96T51-2 (parent)
chain: MMEERANLMHMMKLSIKVLLQSALSLGRSLDADHAPLQQFFVVMEHCLKHGLKVKKSFIGQNKSFFGPLELVEKLCPEASDIATSVRNLPELKTAVGRGRAWLYLALMQKKLADYLKVLIDNKHLLSEFYEPEALMMEEEGMVIVGLLVGLNVLDANLCLKGEDLDSQVGVIDFSLYLKDVQDLDGGKEHERITDVLDQKNYVEELNRHLSCTVGDLQTKIDGLEKTNSKLQEELSAATDRICSLQEEQQQLREQNELIRERSEKSVEITKQDTKVELETYKQTRQGLDEMYSDVWKQLKEEKKVRLELEKELELQIGMKTEMEIAMKLLEKDTHEKQDTLVALRQQLEEVKAINLQMFHKAQNAESSLQQKNEAITSFEGKTNQVMSSMKQMEERLQHSERARQGAEERSHKLQQELGGRIGALQLQLSQLHEQCSSLEKELKSEKEQRQALQRELQHEKDTSSLLRMELQQVEGLKKELRELQDEKAELQKICEEQEQALQEMGLHLSQSKLKMEDIKEVNQALKGHAWLKDDEATHCRQCEKEFSISRRKHHCRNCGHIFCNTCSSNELALPSYPKPVRVCDSCHTLLLQRCSSTAS
partner: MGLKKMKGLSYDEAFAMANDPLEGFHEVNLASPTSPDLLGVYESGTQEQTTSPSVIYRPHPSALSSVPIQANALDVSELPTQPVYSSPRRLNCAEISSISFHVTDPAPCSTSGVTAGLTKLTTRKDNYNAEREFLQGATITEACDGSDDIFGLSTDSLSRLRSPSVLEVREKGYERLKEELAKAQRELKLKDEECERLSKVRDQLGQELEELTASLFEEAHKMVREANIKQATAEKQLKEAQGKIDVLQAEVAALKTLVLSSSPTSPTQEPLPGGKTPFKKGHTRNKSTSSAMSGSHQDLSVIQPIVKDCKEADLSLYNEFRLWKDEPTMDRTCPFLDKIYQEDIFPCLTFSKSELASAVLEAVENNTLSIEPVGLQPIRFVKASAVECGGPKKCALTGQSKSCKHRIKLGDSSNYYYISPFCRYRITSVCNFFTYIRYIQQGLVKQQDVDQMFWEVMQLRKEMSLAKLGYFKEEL
B3: Protein FAM9B (Homo sapiens), Q8IZU0 (parent)
chain: MAAWGKKHAGKDPVRDECEERNRFTETREEDVTDEHGEREPFAETDEHTGANTKKPEDTAEDLTAKRKRMKMDKTCSKTKNKSKHALRKKQLKRQKRDYIHSLKLLNVLEEYITDEQKEEEEEEGEEEELIRIFQEQQKKWQQYRSVRRERLKEMKLLRDQFVKALEDFEDLCDRVFSDEDSELDN
partner: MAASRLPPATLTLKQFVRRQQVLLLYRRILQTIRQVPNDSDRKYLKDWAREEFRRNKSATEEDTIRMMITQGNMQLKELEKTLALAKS

Variants of: B1
Details: with pspc_human SFTPC

| effect of a mutation on the interaction | Variant |
| --- | --- |
| with no effect | D144G |
| with no effect | S104T |

Variants of: B1
Details: with sarco_human SLN

| effect of a mutation on the interaction | Variant |
| --- | --- |
| with no effect | D144G |
| with no effect | S104T |

Variants of: B1
Details: with sc22a_human SEC22A

| effect of a mutation on the interaction | Variant |
| --- | --- |
| with no effect | D144G |
| with no effect | S104T |

Variants of: B1
Details: with tx264_human TEX264, Q9Y6I9
tx264_human TEX264, Q9Y6I9, sequence (Q9Y6I9 whole entry): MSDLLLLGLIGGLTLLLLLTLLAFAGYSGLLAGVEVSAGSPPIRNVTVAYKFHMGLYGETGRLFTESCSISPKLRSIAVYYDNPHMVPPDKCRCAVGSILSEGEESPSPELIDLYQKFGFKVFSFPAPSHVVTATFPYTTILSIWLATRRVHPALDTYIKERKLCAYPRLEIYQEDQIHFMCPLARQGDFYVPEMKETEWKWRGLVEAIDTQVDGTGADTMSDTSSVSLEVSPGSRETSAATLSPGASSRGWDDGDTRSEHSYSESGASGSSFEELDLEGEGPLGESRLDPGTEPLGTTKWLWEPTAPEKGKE

| effect of a mutation on the interaction | Variant |
| --- | --- |
| with no effect | D144G |
| with no effect | S104T |

Variants of: B1
Details: with tnmd_human TNMD

| effect of a mutation on the interaction | Variant |
| --- | --- |
| with no effect | V322I |

Variants of: B2
Details: with rab3i_human RAB3IP

| effect of a mutation on the interaction | Variant |
| --- | --- |
| with no effect | C159F |

Variants of: B3
Details: with lyrm2_human LYRM2, Q9NU23

| effect of a mutation on the interaction | Variant |
| --- | --- |
| with no effect | R23H |
